Reference: article PMC12416549 (2024)
Changes are numbered by the printed parent chain. In names and notes the source's numbering stands. Each block holds one binder with its values, some of them ahead of it.

Biological target: T1, TNFR1 (Homo sapiens, UniProt P19438)
T1 chain: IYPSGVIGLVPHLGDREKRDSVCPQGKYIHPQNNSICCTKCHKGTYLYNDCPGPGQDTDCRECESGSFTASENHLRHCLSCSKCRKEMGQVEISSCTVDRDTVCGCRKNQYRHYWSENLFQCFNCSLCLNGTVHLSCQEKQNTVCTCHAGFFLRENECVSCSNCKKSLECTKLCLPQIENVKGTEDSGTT
Assay: yeast display SC50

B3: E16A (designed binder)
chain: MTLQELLREEALRRAAAEAFRYALELLAEKFPEQKEYLLDLAEEIESQIRSLSGVDVEDVRKFLDKEWAWVKELLAEHPAELAEVEAARAARLAELRAEVEAKVAA
apparent Kd (screen): 0.539 nM

B7: E18F (designed binder)
chain: B3 chain with A16E, E18F
apparent Kd (screen): 0.539 nM

B9: M1N (designed binder)
chain: B3 chain with M1N, A16E
apparent Kd (screen): 0.49 nM

B10: L3D (designed binder)
chain: B3 chain with L3D, A16E
apparent Kd (screen): 0.718 nM

B13: E5A (designed binder)
chain: B3 chain with E5A, A16E
apparent Kd (screen): 0.79 nM

B16: L12Q (designed binder)
chain: B3 chain with L12Q, A16E
apparent Kd (screen): 0.79 nM

B19: L24K (designed binder)
chain: B3 chain with A16E, L24K
apparent Kd (screen): 11.4 nM

B21: A15Q (designed binder)
chain: B3 chain with A15Q, A16E
apparent Kd (screen): 0.718 nM

B23: K35M (designed binder)
chain: B3 chain with A16E, K35M
apparent Kd (screen): 0.446 nM

B24: L26V (designed binder)
chain: B3 chain with A16E, L26V
apparent Kd (screen): 0.79 nM

B26: M1H (designed binder)
chain: B3 chain with M1H, A16E
apparent Kd (screen): 0.539 nM

B27: L3F (designed binder)
chain: B3 chain with L3F, A16E
apparent Kd (screen): 2.25 nM

B28: L7R (designed binder)
chain: B3 chain with L7R, A16E
apparent Kd (screen): 8.56 nM

B30: R8H (designed binder)
chain: B3 chain with R8H, A16E
apparent Kd (screen): 0.869 nM

B31: E33V (designed binder)
chain: B3 chain with A16E, E33V
apparent Kd (screen): 0.718 nM

B38: P32C (designed binder)
chain: B3 chain with A16E, P32C
apparent Kd (screen): 0.539 nM

B39: Q34N (designed binder)
chain: B3 chain with A16E, Q34N
apparent Kd (screen): 0.539 nM

B40: E10C (designed binder)
chain: B3 chain with E10C, A16E
apparent Kd (screen): 16.7 nM

B41: E5V (designed binder)
chain: B3 chain with E5V, A16E
apparent Kd (screen): 0.593 nM

B42: A11N (designed binder)
chain: B3 chain with A11N, A16E
apparent Kd (screen): 0.405 nM

B48: E29F (designed binder)
chain: B3 chain with A16E, E29F
apparent Kd (screen): 0.653 nM

B49: L12R (designed binder)
chain: B3 chain with L12R, A16E
apparent Kd (screen): 0.49 nM

B51: D40A (designed binder)
chain: B3 chain with A16E, D40A
apparent Kd (screen): 0.539 nM

B56: A19P (designed binder)
chain: B3 chain with A16E, A19P
apparent Kd (screen): 9.41 nM

B57: R14Y (designed binder)
chain: B3 chain with R14Y, A16E
apparent Kd (screen): 0.49 nM

B58: P32K (designed binder)
chain: B3 chain with A16E, P32K
apparent Kd (screen): 0.653 nM

Further lines, results first:

apparent Kd (screen): 0.593 nM
B1: D65T (designed binder)
chain: B3 chain with A16E, D65T

apparent Kd (screen): 0.49 nM
B2: S47F (designed binder)
chain: B3 chain with A16E, S47F

apparent Kd (screen): 13.8 nM
B4: D59C (designed binder)
chain: B3 chain with A16E, D59C

apparent Kd (screen): 0.869 nM
B5: K72A (designed binder)
chain: B3 chain with A16E, K72A

apparent Kd (screen): 0.653 nM
B6: A98Q (designed binder)
chain: B3 chain with A16E, A98Q

apparent Kd (screen): 0.718 nM
B8: K72T (designed binder)
chain: B3 chain with A16E, K72T

apparent Kd (screen): 5.31 nM
B11: W68Q (designed binder)
chain: B3 chain with A16E, W68Q

apparent Kd (screen): 0.869 nM
B12: L93D (designed binder)
chain: B3 chain with A16E, L93D

apparent Kd (screen): 0.539 nM
B14: A102Q (designed binder)
chain: B3 chain with A16E, A102Q

apparent Kd (screen): 0.539 nM
B15: L93Q (designed binder)
chain: B3 chain with A16E, L93Q

apparent Kd (screen): 12.5 nM
B17: W70S (designed binder)
chain: B3 chain with A16E, W70S

apparent Kd (screen): 1.16 nM
B18: Q48M (designed binder)
chain: B3 chain with A16E, Q48M

apparent Kd (screen): 0.869 nM
B20: D59K (designed binder)
chain: B3 chain with A16E, D59K

apparent Kd (screen): 2.25 nM
B22: D56Y (designed binder)
chain: B3 chain with A16E, D56Y

apparent Kd (screen): 3.99 nM
B25: Q48P (designed binder)
chain: B3 chain with A16E, Q48P

apparent Kd (screen): 0.718 nM
B29: V85G (designed binder)
chain: B3 chain with A16E, V85G

apparent Kd (screen): 6.43 nM
B32: E67I (designed binder)
chain: B3 chain with A16E, E67I

apparent Kd (screen): 0.539 nM
B33: L93W (designed binder)
chain: B3 chain with A16E, L93W

apparent Kd (screen): 1.05 nM
B34: L52K (designed binder)
chain: B3 chain with A16E, L52K

apparent Kd (screen): 0.653 nM
B35: E73W (designed binder)
chain: B3 chain with A16E, E73W

apparent Kd (screen): 0.49 nM
B36: L64Y (designed binder)
chain: B3 chain with A16E, L64Y

apparent Kd (screen): 0.539 nM
B37: R61L (designed binder)
chain: B3 chain with A16E, R61L

apparent Kd (screen): 12.5 nM
B43: E67A (designed binder)
chain: B3 chain with A16E, E67A

apparent Kd (screen): 0.956 nM
B44: P79G (designed binder)
chain: B3 chain with A16E, P79G

apparent Kd (screen): 0.79 nM
B45: L41F (designed binder)
chain: B3 chain with A16E, L41F

apparent Kd (screen): 0.718 nM
B46: K62H (designed binder)
chain: B3 chain with A16E, K62H

apparent Kd (screen): 16.7 nM
B47: G54L (designed binder)
chain: B3 chain with A16E, G54L

apparent Kd (screen): 0.539 nM
B50: W68M (designed binder)
chain: B3 chain with A16E, W68M

apparent Kd (screen): 0.718 nM
B52: E81P (designed binder)
chain: B3 chain with A16E, E81P

apparent Kd (screen): 20.2 nM
B53: W70V (designed binder)
chain: B3 chain with A16E, W70V

apparent Kd (screen): 0.539 nM
B54: V57C (designed binder)
chain: B3 chain with A16E, V57C

apparent Kd (screen): 1.05 nM
B55: I49G (designed binder)
chain: B3 chain with A16E, I49G

apparent Kd (screen): 1.54 nM
B59: W68T (designed binder)
chain: B3 chain with A16E, W68T
